Data published in a protein production outcome set (Wang et al. 2014).

Assay: label from the status in PepcDB records

Sequence	protein production
PQKKVIVLVHGLASSPEAWIALTNDIMGDNILREHYQVWQVFYSTNMPILESRFQIYALLKQAFDSLNPNDPADHNAVLIGHSMGGIISRLLVSQADISQKAFSLVSPYQQAQLKKQPMVYQRLKIQPIPNFDRAIFMSAPHHGTDFADLWFTRAARKIIKLPGAFLGAITDTVTNENIDAKDLLLRIDQGLIQNGPSDLSYKSKFIELTKNINPPSGFVFHSIIGNNTKSDDPEKITDGIVPYKSAHLEGSASEKIIQGGHSIQETPQAVLELRRILRLHLKEHQ	failed
PRFLFVHGWGFDRNFWEPVRRAIGQHNGDSLDFGYFGQSKLEYDWSQPFIAVGHSLGFLWLLQQPLAACIQLISINGFSRFFAGSDWPFGVPQRVTKRMQLALHRDAKKTLDQFYETVGFFDTSEKRYDLAALDNGLEFLMTQDNRSIAKKQAHKIAIMASDQDPIVPVSLTKACFPTPTPILWNKDGGHLLPITDPDSCANFIRDVVK	failed
PRTVKELTVSAGDNLIITLPDNEVELKAFVAPAPPVETTYNYEWNLISHPTDYQGEIKQGHKQTLNLSQLSVGLYVFKVTVSSENAFGEGFVNVTVKPAR	not failed
PVVVSEAGASVYSASEAAAREFPDMDVSLRGAVSIARRLQDPLAELVKIDPKAIGVGQYQHDVNQTALAKTLDAVVEDAVNAVGVDLNTASVPLLARVAGVSPTIAENIVHYRDEHGAFVNRTALKKVPRLGPKAFEQCAGFLRISGGKDPLDASAVHPEAYPVVRKMSEATGLSVEKLIGNSHVLSSLRPSDFA	failed
QDISQRKKEQEALAESESRFQELADLLPQPVFELDMKGNIIYTNSLGFQAFGYTKDDLEKGVSSLALFVPEDRETVLQNIENRLKNIPFENHEYTALRKDGTTFPILIYTARINRGGVPVGIRGIVLDITDRKQAEENLVQLNQNLELRVEERTRELEVTHQQMILQEKLASIGQLAAGIAHELNNPINFVRINFATLQEDVSDLHTLLKEYRLVTEKLEDR	failed
QDSDSTAAVAVLKRAVELDAESRYQQALVCYQEGIDMLLQVLKGTKESSKRCVLRTKISGYMDRAENIKKYLDQEKEDGK	not failed
QDVPVTQVMTPRPVVFRVDATMTINEFLDKHKDTPFSRPLVYSEQKDNIIGFVHRLELFKMQQSGSGQKQLGAVMRPIQVVLNNTALPKVFDQMMTHRLQLALVVDEYGTVLGLVTLEDIFEHLVGE	not failed
QEGIISLDTEGRVVLMNPKAEEMTGRSQNESCGLPIEDVFILWSPLQDKNQLVAINQCLAEGRHTLLPEGSQLLSSQGERQEIRCSASPIRDRDNLLTGAVVVFQDVTRARHEQRELQYQANHDMLTGLINRRRLEERLNQAISQLGQDEQHILCYVDLDYFKDVNDSAG	failed
QEIRPMPADSAYGVVHISVCNMRDEGKFTSGMSTQALLGMPVKVLQYTGWYEIQTPDDYTGWVHRMVITPMSKEKYDEWNRAEKIVVTSHYGFTYEKPDDDSQTVSDVVAGNRLKWEGSKGHFYKVSYPDGRQAYISRHISQPESKWRASLKQDAESIIKTAYTMIGIPYLWAGTSSKGVDCSGLVRTVLFMHDIIIPRDASQQAYVGERIEIAPDFSNVQRGDLVFFGRKATADRKEGISHVGIYLGNKRFIHALGDVHISSFDPEDECYDEFNTGRLLFATRFLPYINKEKGMNTTDHNLYYLHH	not failed
QELKGKYMKTPTGYLMVLRHGDNVLQNLEQLARDEHIPSASFVGIGFMSEATFGFYDFGRKQFDPKTYRNVEMANMTGSIAWKEGKPSIHAHGTVTDGTFQGAGGHLLGLTVGTGSCEITVTVYPQRLDRFVDPEIQANVLGLPQQ	not failed
QEVSWTQYTQRKFQKSRQPRPSSQYNQRLFGGDMEKFIQSSGQPVPLVVESCIRFINLNGLQHEGIFRVSGAQLRVSEIRDAFERGEDPLVEGCTAHDLDSVAGVLKLYFRSLEPPLFPPDLFGELLASSELEDTAERVEHVSRLLWRLPAPVLVVLRYLFTFLNHLAQYSDENMMDPYNLAVCFGPTLLPVPAGQDPVALQGRVNQLVQTLIVQPDRVFPPLTSLPGPVYE	failed
QGPVGTRIRLALGQDVEAANALMATTGDGVRIIPVLATAIEDGSASSAMLAGLGGIGTNAYHEAASHTFTDRPMNEALTTVSLTLVAADEEDRIVGVLSATAPGTLIDMAMSNGFTAEKAMALSLFVAKIHGLAVAEHARGQGIAAALLKRTWQVYQQLGYMLLYGSYEADRDLAAFYTRSGYTVHAPG	failed
QIDFQVLHDLRQKFPEVPEVVVSRCMLQNNNNLDACCAVLSQESTRYLYGEGDLNFSDDSGI	not failed
QKGRVETRRVVHIMDFQRGKNLRYQLLQLVEPFGVISNHLILNKINEAFIEMATTEDAQAAVDYYTTTPALVFGKPVRVHLSQKYKRIK	not failed
QKRAWITAPVALREGEDLSKKNPIAKIHSDLAEERGLKITYKYTGKGITEPPFGIFVFNKDTGELNVTSILDREETPFFLLTGYALDARGNNVEKPLELRIKVLDINDNEPVFTQD	not failed
QLAEVEVKKFKQMTEAIGPSTIRDLAVAGPEMQVKLLQSLGLKSTLITDGSTPINLFNTAFGLLGMGPEGQPLGRRVASGPSPGEGISPQSAQAPQAPGDNHVVPVLR	failed
QLQDGKGEKVMVEYSSPNTNKPLHLGHLRNNFLGYSISQILKANGFDVIKANLVNDRGIHICKSMIAYQKSGLGETPVSTGMKGDHLVGKYYVAFDKQLKKEVEALVAAGVEEDKAKKEAPILKEAQAMLLKWEQGDKEVYDLWKTMNGWVYDGFNASYKKIGVTFDHFYYESNTYLLGKDIVEEGLAKGVFNKRADGSVWIDLTAEGLDEKLVLRSDGTSVYITQDLGTAELKYKDFGCKRSVYVVGNEQDYHFIVLIHILKKLGKPYANGVYHMSYGMVDLPSGKMKSREGTVVDADDLVDEMIATAKERTLEQGKTDGFSEEQATHLYETLGLGALKYFLLKVDPKKRMMFNPEESIDFQ	failed
QNRGSLSTARSYISMGVGRVYVMKDSPNDIELTMAEGVDVGRYVDYRELAIKIADNRIDVKKNKEIINSRFKLKYKNLSSIYN	failed
QNRIDMAMMRGRCGLWDWNMASGRVYWSRAMYEMLGYIPQDALLSISQITAIINPNDANFFDLAQELMSGKKKHIDINVPMRHADGHYVWMRIRAEVTDEEELHLVGIAFDIS	failed

Sequence	protein production
QNVLDLHGLHVDEALEHLMRVLEKKTEEFKQNGGKPYLSVITGRGNHSQGGVARIKPAVIKYLISHSFRFSEIKPGCLKVMLK	not failed
QPTAQQQLTKPAKITCANCKKPLQKGQTAYQRKGSAHLFCSTTCLSSFS	not failed
QRALVLTAARGRGKSAATGLSIAGLIEKLRERKEKSIRIIVTAPSIASASQVMSFAKLGLEALGEELSVKVSDTGHIKSLRGDYFKLEYVPPDAAIEDEGELLIIDEAAALGINYIDLALRAWKKVALVTTVHGYEGSNKAFLRYLRRLIESKRIRVKWVNMEQPLRYAKGDPIEKWLYDALLLD	failed
QRSYERDFPHHDRICIVKTHGTRQSQEGDKPEELDFSQVSGGVAPAIQEEIPGVELATRTTLYGTSKMILEDNKTYETKTLLAEPAFLDMFGVELIAGVRDSALRDNMTCLISESLARKMGGDVLGKRLRPAESKSDRAITIGGVFEDLPHNSSIQADMLLPITWMPAESLNNWIGNDRYIAYVRLRPGVSPESLDEALLEMQKRHQDMEVFRKAGVELHYSLTPFNRLRLEDPTLVNMLRIQQ	not failed
QYHDHHKDQYQMDAAHVPNKTPLYITDILSLRGKKDSGPARDSIRDSIDRIEFTDFQLHELTGRWLSENMPEGFKSDRFRFLARTITASEEAPVEGSDGEIRIKPNLYILVWEPSFYEELLTRDYFFLFPPEILKQHTLVFQLYSFFRSRMVRRHTDCMLLSELNQKLARNIEWRRFSMDLIRELKRLSDGKGTDDLFVVNLWGYHLTIETMIENDKVMDYQIDIKCDVEEVLRYSRARTTNAGKRNMAPTLPNPLRNEMVTRQQLEALSGIIDGEFEPIQRKTPSPRGNLGRRVKQRKHLVEINADEITITLSKYTSPEALERSITALSAMTGHSYASIKEECSEYIEKLDWLRVGDEPIPYETLSKTVELFNTQNEVKHLTIERLIAGLAVRRKVCRQVFDGHMDEMVFRALDEMAI	failed
RAGHIEVAEVEGMSFPVKLDTGADVSSINAKDIKLFQKDGKDMVSFTYENDLGMQKAFTREVVDVMKITAKKGEKANVRPVVEMHVKLGELEKKIRVNLQDRGRFHYSMILGKNFLKHGALVASETNYIVTKK	not failed
RDITARVQAEENKRRLAEVVEANPDPVLFIQPGGAVTYLNPAARRTLGLGDGQAMPPLAAILSAAVLDSLQREGWDRAEHSGRWNIEARLQPPAGGASVPVSLMLLAHRAASGERFYSLVAHD	failed
RDLDAVLQAIVQRARSLLGTDVAYLTLHDEAEGDTYMRVTEGSVAARFQQLRLGMGEGLGGLVAQTARPYVTPDYFNDERFQHTRVIDGGVRDEGLVAILGVPLMIGPQVIGVLFAADRRARVFEREQIALLGSFAALAAAAIDTANLLTETRSALDRLARANEIIRDRSGVIERASDVHDRLAELVLRGG	failed
RDSLFNDPNAPVLGNPEGDVTVVEFFDYNCPYCRRAMAEVQGLVDADPNVRLVYREWPILGEGSDFAARAALAARQQGKYEAFHWALMGMSGKANETGVLRIAREVGLDTEQLQRDMEAPEVTAHIAQSMALAQKLGFNGTPSFVVEDALVPGFVEQSQLQDAVDRARKAA	not failed
RDSLFNDPNAPVLGNPEGDVTVVEFFDYNCPYCRRAMAEVQGLVDADPNVRLVYREWPILGEGSDFAARAALAARQQGKYEAFHWALMGMSGKANETGVLRIAREVGLDTEQLQRDMEAPEVTAHIAQSMALAQKLGFNGTPSFVVEDALVPGFVEQSQLQDAVDRARKAAAK	not failed
REEDPHEGKIWFHGKISKQEAYNLLMTVGQVCSFLVRPSDNTPGDYSLYFRTNENIQRFKICPTPNNQFMMGGRYYNSIGDIIDHYRKEQIVEGYYLKEPVPMQDQ	not failed
REIADNTYIVLGTMTLNDFNEYFETDLESDNVDTIAGFYLTGVGTIPSQEEKEHFEVESNGKHLELINDKVKDGRVTKLKILVSEVEEKEDEKD	not failed
REKLFLQPVKPTDSMRMEVSSPKLAIGVRGKREVSEADCYRHHILLKLLFAMMFGWTSDRFQKCYESGKIDASLSLEVEITSRFHFVMLTMDTKEPVALSHQFRKAIRNFTKDLDITEEHLDIIKREMFGEFFSSMNSLEFIATQYDAFENGEIIFDLPKILQEITLEDVLDAGHHLIDDGDIVDFTIFP	failed
RGLRRGTLRIGSFGPTSSMRLLPALLARYRQQYPGIEVHIDEGPDEQVLQWLLERRVDIAFAVLPDPRFVCCPLVEDQMVAVLPAGHRLADRPRVTLAELCGEPFALSGAGSAELVMRLFQAARLQPNIRYRCGQLLSTLDTVARG	failed
RGRYRQYNSEILEEAISVVMSGKMSVSKAQSIYGIPHSTLEYKVKERLGTLKNPPKKKMKLMR	not failed
RKKEDKYDFRALGLAIKEARKKQGLTREQVGAMIEIDPRYLTNIENKGQHPSLQVLYDLVSLLNVSVDEFFLPASSQVKSTKRRQLENKIDNF	failed
RLEDLGAASAARLLDAAEERLGRPCGRMERYGRVEREVVAAAEGAELLIVARDGDRARLGPHSLGPASRFVVDHAPCPVLLVWPAPAPGLGTIPPPPHP	not failed
RNGGTIGGADIIAKLLEDKLGLQLNQALLGIDLFVMIVSLTYISLPQMMYALIASFMYGQIVRLVQQGGYSARGIFIVSEQAEKIARFIMDELGRGVTYLTGEGAYSGRRKKVIYVALGRRDIRELKAFLTQVDPNAFITYFDVNEVNSPEFLTIKSKYHKKRK	failed
